Like-named read-outs stand apart in the source and are kept apart here.
How the values were obtained:
Assay in all cases: cryo-EM structure
[1] = molecular target: LC8 (RSP22) (Chlamydomonas reinhardtii)
[2] = molecular target: FAP385 (Chlamydomonas reinhardtii)
[3] = molecular target: RSP16 (Chlamydomonas reinhardtii)
cryo-EM structure [4] = molecular target: the molecule itself
cryo-EM structure [5] = molecular target: the molecule itself; remark: listed apart in the source

LC8 (RSP22) (natural protein)
stoichiometry N [1]: 2

FAP385 (natural protein)
stoichiometry N [2]: 2

RSP16 (natural protein)
stoichiometry N [3]: 2

B1: p28 (natural protein, Chlamydomonas reinhardtii, UniProt Q39604 1-253, looked up)
chain: MIPPLSSLVRYDNPVLVSTSKDKGKGAKGTPGKKGALPPVEQKPGLTQTEDILNSILPPREWTEDGQLWVQYVSSTPATRLDVINLQEKLDQQLQQRQARETGICPIREELYAQTFDELIRQVTINCAERGLLLLRVRDEMRMTIAAYQTLYESAVAFGIRKALQTEQGKSEMESRITQLEGDVKDLERQVQEWKFKCEAIEKRESERREVEAKKHKDEVAYLENYAKQLKQQLETFLVPAKKGAPGAPAAAT
stoichiometry N (cryo-EM structure [4]): 2

B2: DRC4 (natural protein, Chlamydomonas reinhardtii, UniProt Q7XJ96 1-471, looked up)
chain: MAPKKKGTKKESKKDAVATGDIEGASVEELNQKIGTLEKEKNKEEEYRNYMQLERDKINAFWEITKKDLEDRRAELRNKDREMEEMEERHQVEIKVYKQKVKHLLYEHQNNITTLKSDGELALKLQQDEYRKREGDLGKDKRNLKLELKEQELAHQDIIRQLKLEHAKEITKLRQEFEQQAKDLQSKYEKKMKMLRDDMELRRKQEIHEIEERKNTHINELMKKHERAFAEIKNYYNDITHNNLDLIKTLKEDVAEMKRREAANEKLMYEIAQDNKKLSEPLSRALKEVELLRQQLANYDKDKLSLAQTKARLLNAERQIKNLEWENEVLSQRFSKVQTERDELYGKFEASIYDVQQKTGLKSALLEKKVEALGEALEMKEAQLAEVLTAANLDPGTLAAINQRLEEVLDNKNQIIKALQYDVAKVSKAHNDLIRVYEAKLTEFGIPVDELGFRPLVTNTSTGPAGLVVGA
stoichiometry N (cryo-EM structure [4]): 2

B3: RSP9 (natural protein, Chlamydomonas reinhardtii, UniProt Q27YU5 1-269, looked up)
chain: MVQLEPNITLVLKHLASCGAVVSAEQQAALDHSIPIKRIEAGLRSLTLWGRLTTLNGKDYLVAEGYNVASSKEGAAVYETKYFYSQDGARWSDLQPVDSETATRCARIKGMLSGDPAKNYELEEKDPNAPEPSPEAEEEVKPLVFQIPELAVLRCRVDAIATATSVIPTDSTILNAASQVVPNRLFAGAAYPEKLESYQHRFSLPGSGVTLSQDLRGTWAVQYDAFKGVAQVRSLLFPGYFFYYAANELTWGSLYVGDGLRNNDLIFML
stoichiometry N (cryo-EM structure [5]): 2

Reference: PMC7855293 (Nature structural & molecular biology, 2020)
